pIC50, pKd: −log10 of the molar value. One block for each sequence: values may come before it.
Assays:
HLA-A*01:01 = experiment: IEDB peptide-MHC binding, purified MHC/direct/fluorescence; filed as Kd, often an IC50 or EC50 that approximates it; ≥ and ≤ were set here for values at or beyond the usual limits of such assays
HLA-A*03:01 = experiment: as above
HLA-A*11:01 = experiment: as above
HLA-A*31:01 = experiment: as above
HLA-B*08:02 = experiment: as above
HLA-B*15:17 [1] = experiment: as above
HLA-B*27:05 [2] = experiment: as above
HLA-B*39:01 = experiment: as above
HLA-B*40:01 = experiment: as above
HLA-B*46:01 = experiment: as above
HLA-B*48:01 = experiment: as above
HLA-B*57:01 = experiment: as above
HLA-B*58:01 = experiment: as above
HLA-C*05:01 = experiment: as above; details: source organism: Bacillus anthracis str. A0389
HLA-A*02:06 = experiment: IEDB peptide-MHC binding, purified MHC/competitive/fluorescence; filed as Kd, often an IC50 or EC50 that approximates it; ≥ and ≤ were set here for values at or beyond the usual limits of such assays
HLA-A*26:01 [3] = experiment: as above; details: source organism: Bacillus anthracis str. A0389
HLA-B*15:01 [4] = experiment: as above
HLA-B*15:09 [5] = experiment: as above; details: source organism: Bacillus anthracis str. A0389
HLA-B*07:02 [6] = experiment: IEDB peptide-MHC binding, purified MHC/direct/fluorescence; filed as Kd, often an IC50 or EC50 that approximates it; ≥ and ≤ were set here for values at or beyond the usual limits of such assays
HLA-B*08:01 = experiment: as above
HLA-B*15:01 [7] = experiment: as above
HLA-B*15:09 [8] = experiment: as above
HLA-B*18:01 [9] = experiment: as above
HLA-A*02:01 [10] = experiment: IEDB peptide-MHC binding, purified MHC/competitive/fluorescence; filed as Kd, often an IC50 or EC50 that approximates it; ≥ and ≤ were set here for values at or beyond the usual limits of such assays; details: source organism: Influenza A virus H3N2
HLA-A*02:03 = experiment: as above; details: source organism: Influenza A virus H3N2
HLA-A*68:02 [11] = experiment: as above; details: source organism: Influenza A virus H3N2
HLA-B*07:02 [12] = experiment: IEDB peptide-MHC binding, purified MHC/competitive/radioactivity; ≥ and ≤ were set here for values at or beyond the usual limits of such assays; details: source organism: dengue virus type 1
HLA-B*35:01 [13] = experiment: IEDB peptide-MHC binding, purified MHC/competitive/radioactivity; filed as Kd, often an IC50 or EC50 that approximates it; ≥ and ≤ were set here for values at or beyond the usual limits of such assays; details: source organism: Dengue virus 1 Brazil/97-11/1997
HLA-B*40:02 = experiment: IEDB peptide-MHC binding, cellular MHC/competitive/fluorescence; ≥ and ≤ were set here for values at or beyond the usual limits of such assays; details: source organism: Homo sapiens
HLA-A*02:01 [14] = experiment: IEDB peptide-MHC binding, purified MHC/direct/fluorescence; filed as Kd, often an IC50 or EC50 that approximates it; ≥ and ≤ were set here for values at or beyond the usual limits of such assays
HLA-A*26:01 [15] = experiment: as above; details: source organism: Variola virus
HLA-A*26:02 = experiment: as above; details: source organism: Variola virus
HLA-A*68:02 [16] = experiment: as above
HLA-A*69:01 = experiment: as above; details: source organism: Cowpox virus
HLA-B*07:02 [17] = experiment: IEDB peptide-MHC binding, purified MHC/competitive/fluorescence; filed as Kd, often an IC50 or EC50 that approximates it; ≥ and ≤ were set here for values at or beyond the usual limits of such assays; details: source organism: Vaccinia virus Copenhagen
HLA-B*15:17 [18] = experiment: as above; details: source organism: Vaccinia virus Copenhagen
HLA-B*18:01 [19] = experiment: as above; details: source organism: Vaccinia virus Copenhagen
HLA-B*27:05 [20] = experiment: as above; details: source organism: Vaccinia virus Copenhagen
HLA-B*35:01 [21] = experiment: as above; details: source organism: Vaccinia virus Copenhagen
HLA-A*26:03 = experiment: as above; details: source organism: Orthomarburgvirus marburgense
[22] = source organism: Bacillus anthracis
[23] = source organism: Bacillus anthracis str. A0193
[24] = source organism: Bacillus anthracis str. A0389
[25] = source organism: Influenza A virus (A/equine/New York/1/1999(H3N8))
[26] = source organism: Influenza A virus(A/swine/Shandong/fNY/2003(H9N2))
[27] = source organism: Marburg virus - Musoke, Kenya, 1980

Sequence: FTDNNELEF
- pKd (HLA-A*01:01; [22]): 8.70
- pKd (HLA-A*03:01; [22]): ≤ 4.70
- pKd (HLA-A*11:01; [22]): ≤ 4.70
- pKd (HLA-A*31:01; [22]): ≤ 4.70
- pKd (HLA-B*08:02; [23]): ≤ 4.70
- pKd (HLA-B*15:17 [1]; [22]): 8.52
- pKd (HLA-B*27:05 [2]; [22]): ≤ 4.70
- pKd (HLA-B*39:01; [23]): ≤ 4.70
- pKd (HLA-B*40:01; [22]): ≤ 4.70
- pKd (HLA-B*46:01; [22]): ≤ 4.70
- pKd (HLA-B*48:01; [22]): ≤ 4.70
- pKd (HLA-B*57:01; [22]): ≤ 4.70
- pKd (HLA-B*58:01; [22]): 6.67
- pKd (HLA-C*05:01): ≥ 9.00
- pKd (HLA-A*02:06; [24]): 9.70
- pKd (HLA-A*26:01 [3]): ≤ 4.70
- pKd (HLA-B*15:01 [4]; [24]): ≤ 4.70
- pKd (HLA-B*15:09 [5]): ≤ 4.70

Sequence: ELVRKTRFL
- pKd (HLA-A*01:01; [25]): ≤ 4.70
- pKd (HLA-A*11:01; [25]): ≤ 4.70
- pKd (HLA-A*31:01; [25]): ≤ 4.70
- pKd (HLA-B*07:02 [6]; [25]): ≤ 4.70
- pKd (HLA-B*08:01; [25]): 5.79
- pKd (HLA-B*15:01 [7]; [25]): ≤ 4.70
- pKd (HLA-B*15:09 [8]; [26]): ≤ 4.70
- pKd (HLA-B*18:01 [9]; [25]): ≤ 4.70
- pKd (HLA-B*39:01; [26]): ≤ 4.70
- pKd (HLA-B*57:01; [25]): ≤ 4.70
- pKd (HLA-B*58:01; [25]): ≤ 4.70
- pKd (HLA-A*02:01 [10]): ≤ 4.70
- pKd (HLA-A*02:03): ≤ 4.70
- pKd (HLA-A*02:06; source organism: Influenza A virus H3N2): 5.54
- pKd (HLA-A*68:02 [11]): 5.85

Sequence: HPASAWTLYA
- pIC50 (HLA-B*07:02 [12]): 8.21
- pKd (HLA-B*35:01 [13]): 6.24

- pIC50 (HLA-B*40:02): 5.72
Sequence: REGSFRVTT

Sequence: YHRFGLYRL
- pKd (HLA-A*01:01; source organism: Cowpox virus): ≤ 4.70
- pKd (HLA-A*02:01 [14]; source organism: Cowpox virus): ≤ 4.70
- pKd (HLA-A*26:01 [15]): ≤ 4.70
- pKd (HLA-A*26:02): ≤ 4.70
- pKd (HLA-A*68:02 [16]; source organism: Cowpox virus): ≤ 4.70
- pKd (HLA-A*69:01): ≤ 4.70
- pKd (HLA-B*08:01; source organism: Variola virus): ≤ 4.70
- pKd (HLA-B*08:02; source organism: Variola virus): ≤ 4.70
- pKd (HLA-B*15:09 [8]; source organism: Variola virus): 5.62
- pKd (HLA-B*39:01; source organism: Cowpox virus): 5.30
- pKd (HLA-B*40:01; source organism: Cowpox virus): ≤ 4.70
- pKd (HLA-B*46:01; source organism: Cowpox virus): ≤ 4.70
- pKd (HLA-B*57:01; source organism: Cowpox virus): ≤ 4.70
- pKd (HLA-B*58:01; source organism: Cowpox virus): ≤ 4.70
- pKd (HLA-B*07:02 [17]): ≤ 4.70
- pKd (HLA-B*15:01 [4]; source organism: Vaccinia virus Copenhagen): ≤ 4.70
- pKd (HLA-B*15:17 [18]): ≤ 4.70
- pKd (HLA-B*18:01 [19]): 5.58
- pKd (HLA-B*27:05 [20]): ≤ 4.70
- pKd (HLA-B*35:01 [21]): 5.57

Sequence: IISTNTLGK
- pKd (HLA-A*01:01; [27]): ≤ 4.70
- pKd (HLA-A*02:01 [14]; [27]): ≤ 4.70
- pKd (HLA-A*03:01; [27]): 6.60
- pKd (HLA-A*11:01; [27]): 6.89
- pKd (HLA-A*31:01; [27]): ≤ 4.70
- pKd (HLA-A*68:02 [16]; [27]): ≤ 4.70
- pKd (HLA-B*07:02 [6]; [27]): ≤ 4.70
- pKd (HLA-B*08:02; source organism: Ravn virus - Ravn, Kenya, 1987): ≤ 4.70
- pKd (HLA-B*15:01 [7]; [27]): ≤ 4.70
- pKd (HLA-B*15:17 [1]; [27]): ≤ 4.70
- pKd (HLA-B*18:01 [9]; [27]): ≤ 4.70
- pKd (HLA-B*27:05 [2]; [27]): ≤ 4.70
- pKd (HLA-B*40:01; [27]): ≤ 4.70
- pKd (HLA-B*46:01; [27]): ≤ 4.70
- pKd (HLA-B*48:01; [27]): ≤ 4.70
- pKd (HLA-B*57:01; [27]): ≤ 4.70
- pKd (HLA-B*58:01; [27]): ≤ 4.70
- pKd (HLA-A*26:03): ≤ 4.70

Source: the Immune Epitope Database (IEDB)
